This is an account of results in publication PMC11727070, “Structure of the WIPI3/ATG16L1 Complex Reveals the Molecular Basis for the Recruitment of the ATG12~ATG5-ATG16L1 Complex by WIPI3” (Cells, 2024).

Sequences and labels used below:
B1: ATG16L1(124–188) (domain or fragment, human, UniProt Q676U5 124-188, looked up)
chain: MQMNEAKIAECLQTISDLETECLDLRTKLCDLERANQTLKDEYDALQITFTALEGKLRKTTEENQ
notes: Parallel coiled-coil dimer in the crystal; also called ATG16L1 coiled-coil; source: E. coli BL21 (DE3), purified (Ni-NTA, Superdex 200)
B2: ATG16L1(78–206) (domain or fragment, human, UniProt Q676U5 78-206, looked up)
chain: NDNQLQEMAQLRIKHQEELTELHKKRGELAQLVIDLNNQMQRKDREMQMNEAKIAECLQTISDLETECLDLRTKLCDLERANQTLKDEYDALQITFTALEGKLRKTTEENQELVTRWMAEKAQEANRLN
notes: Legends name it without Trx; source: E. coli BL21 (DE3), purified (Ni-NTA, Superdex 200)
B3: ATG16L1(124–197) (domain or fragment, human, UniProt Q676U5 124-197, looked up)
chain: MQMNEAKIAECLQTISDLETECLDLRTKLCDLERANQTLKDEYDALQITFTALEGKLRKTTEENQELVTRWMAE
notes: source: E. coli BL21 (DE3), purified (Ni-NTA, Superdex 200)
B4: ATG16L1(78–247) (domain or fragment, human, UniProt Q676U5 78-247, looked up)
chain: NDNQLQEMAQLRIKHQEELTELHKKRGELAQLVIDLNNQMQRKDREMQMNEAKIAECLQTISDLETECLDLRTKLCDLERANQTLKDEYDALQITFTALEGKLRKTTEENQELVTRWMAEKAQEANRLNAENEKDSRRRQARLQKELAEAAKEPLPVEQDDDIEVIVDET
notes: Legends name it without Trx (while ATG2A is named Trx-ATG2A), so the tag may have been cleaved; also called central region of ATG16L1; source: E. coli BL21 (DE3), purified (Ni-NTA, Superdex 200)
B5: ATG16L1(78–197) (domain or fragment, human, UniProt Q676U5 78-197, looked up)
chain: NDNQLQEMAQLRIKHQEELTELHKKRGELAQLVIDLNNQMQRKDREMQMNEAKIAECLQTISDLETECLDLRTKLCDLERANQTLKDEYDALQITFTALEGKLRKTTEENQELVTRWMAE
notes: as for B3

The first experiment deals with T1, SUMO-tagged WIPI3^Δ (human WIPI3 residues 8–344 without residues 264–281) (human, UniProt Q5MNZ6 8-344, without residues 264–281).
T1 construct: WIPI3, human, residues 8–344 with residues 264–281 removed; the WIPI3(75–80) region is retained; also called SUMO-WIPI3^Δ; loop-truncated WIPI3; source: E. coli BL21 (DE3), purified (Ni-NTA, Superdex 200); not shown: SUMO, N-terminal, kept
T1 sequence (Q5MNZ6 other isoform, or with tags, fused parts or gaps without residues 264–281 | without residues 264–281 | mutant): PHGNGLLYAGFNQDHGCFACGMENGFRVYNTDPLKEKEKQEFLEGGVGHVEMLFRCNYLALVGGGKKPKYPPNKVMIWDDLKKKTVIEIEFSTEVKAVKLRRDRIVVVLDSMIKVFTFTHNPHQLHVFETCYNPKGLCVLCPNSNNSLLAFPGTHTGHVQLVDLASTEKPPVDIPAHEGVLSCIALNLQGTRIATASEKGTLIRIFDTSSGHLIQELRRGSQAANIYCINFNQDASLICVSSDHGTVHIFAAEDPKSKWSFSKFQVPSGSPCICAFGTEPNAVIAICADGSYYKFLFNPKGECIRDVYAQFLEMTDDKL
Description: SEC; purified proteins alone and mixed, Superdex 200 Increase 10/300 GL or Superdex 75 10/300 GL on an AKTA FPLC; mixture profile compared with the theoretical sum; fractions checked by SDS-PAGE. As to conditions: both partners purified. (In general: In gel filtration, larger molecules generally elute earlier.)
In the case of B1, the binding result is recorded as “binds”.
On the same count and under the same terms, next, B2: “binds”; B3: “binds”; B4: “binds”.
With B5, the binding result is listed as “binds”.

The target of a further experiment is T2, GST-tagged WIPI3Δ (human, UniProt Q5MNZ6 8-344, without residues 264–281).
T2 construct: WIPI3, human, residues 8–344 with residues 264–281 removed; also called GST-WIPI3Δ; source: E. coli BL21 (DE3), purified (Ni-NTA, Superdex 200); not shown: GST, N-terminal, kept
T2 sequence (Q5MNZ6 other isoform, or with tags, fused parts or gaps without residues 264–281 | without residues 264–281 | mutant): as above
Nature of the experiment: SEC; competition: a pre-formed complex incubated with an increasing molar ratio of the competitor, then SEC; fractions analysed by SDS-PAGE with Coomassie staining. As to conditions: both partners purified.
On to B2, for which the binding result is recorded as “binds”.
